Target: chimeric OX40 construct 1549: Human OX40 with mouse domains 1A and 4B and region non-annotated extracellular region (aa 30-65 and aa 127-214) (human; mouse) (UniProt P47741)
Assay: flow cytometry, transfected 293-F cells

Row | Binder | relative MFI compared to isotype control
1 | anti-OX40 antibody 1482/1483 (antibody, V domains shown) VH: EVQLLESGGGLVQPGGSLRLSCAASGFTFSSYAMSWVRQAPGKGLEWVSYISYYSGYTYYADSVKGRFTISRDNSKNTLYLQMNSLRAEDTAVYYCARGYGYLDYWGQGTLVTVSS VL: DIQMTQSPSSLSASVGDRVTITCRASQSISSYLNWYQQKPGKAPKLLIYAASSLQSGVPSRFSGSGSGTDFTLTISSLQPEDFATYYCQQYGSLLTFGQGTKLEIK | 8.7
2 | anti-OX40 antibody 1170/1171 (antibody, V domains shown) VH: EVQLLESGGGLVQPGGSLRLSCAASGFTFGGYYMSWVRQAPGKGLEWVSYIPGSGGSTYYADSVKGRFTISRDNSKNTLYLQMNSLRAEDTAVYYCARYDYYWMDYWGQGTLVTVSS VL: DIQMTQSPSSLSASVGDRVTITCRASQSISSYLNWYQQKPGKAPKLLIYAASSLQSGVPSRFSGSGSGTDFTLTISSLQPEDFATYYCQQGHGSYPHTFGQGTKLEIK | 12.1
3 | anti-OX40 antibody 1166/1167 (antibody, V domains shown) VH: EVQLLESGGGLVQPGGSLRLSCAASGFTFGGYYMSWVRQAPGKGLEWVSAISGSGGSTYYADSVKGRFTISRDNSKNTLYLQMNSLRAEDTAVYYCARYDYASMDYWGQGTLVTVSS VL: DIQMTQSPSSLSASVGDRVTITCRASQSISSYLNWYQQKPGKAPKLLIYAASSLQSGVPSRFSGSGSGTDFTLTISSLQPEDFATYYCQQYYWYGLSTFGQGTKLEIK | 11.3

Results, then the binder that gave them:

Row | relative MFI compared to isotype control | Binder
4 | 10.6 | anti-OX40 antibody 1514/1515 (antibody, V domains shown) VH: EVQLLESGGGLVQPGGSLRLSCAASGFTFGYYYMSWVRQAPGKGLEWVSGISSYGSYTYYADSVKGRFTISRDNSKNTLYLQMNSLRAEDTAVYYCARSGYSNWANSFDYWGQGTLVTVSS VL: DIQMTQSPSSLSASVGDRVTITCRASQSISSYLNWYQQKPGKAPKLLIYAASSLQSGVPSRFSGSGSGTDFTLTISSLQPEDFATYYCQQGDYTLFTFGQGTKLEIK
5 | 11.2 | anti-OX40 antibody 1524/1525 (antibody, V domains shown) VH: EVQLLESGGGLVQPGGSLRLSCAASGFTFGSYYMGWVRQAPGKGLEWVSSIGSYYGYTYYADSVKGRFTISRDNSKNTLYLQMNSLRAEDTAVYYCARHDYGALDYWGQGTLVTVSS VL: DIQMTQSPSSLSASVGDRVTITCRASQSISSYLNWYQQKPGKAPKLLIYAASSLQSGVPSRFSGSGSGTDFTLTISSLQPEDFATYYCQQYGPSGLFTFGQGTKLEIK
6 | 8.5 | anti-OX40 antibody 1526/1527 (antibody, V domains shown) VH: EVQLLESGGGLVQPGGSLRLSCAASGFTFSGYSMYWVRQAPGKGLEWVSGIGYSGYGTYYADSVKGRFTISRDNSKNTLYLQMNSLRAEDTAVYYCARYYFHDYAAYSLDYWGQGTLVTVSS VL: DIQMTQSPSSLSASVGDRVTITCRASQSISSYLNWYQQKPGKAPKLLIYAASSLQSGVPSRFSGSGSGTDFTLTISSLQPEDFATYYCQQYGSDSLLTFGQGTKLEIK
